Assays:
target cells in vitro = settings: cited from earlier work
[1] = tested on: human colon carcinoma LS174T; design: species or system nude mice; settings: mouse, in vivo
Experimental: The following figures (FIGS. 2 to 6) illustrate the biodistribution of carboxypeptidase G2 conjugated to PEG in nude mice bearing the human colon carcinoma LS174T. The mice were injected intravenously with the specified amount of enzyme (measured as enzyme units) using 4 mice per time point. Mice were killed at 24 h, 48 h, and 72 h after injection, in some cases at 96 h and 120 h. CPG2 activity in plasma was measured by spectrophotometric assay using methotrexate as the substrate. CPG2 activity in tumour and other tissues was measured by HPLC using methotrexate as the substrate.
The biodistribution of native CPG2 and PEG-CPG2 at 72 hours is illustrated in FIGS. 7 and 8.
FIG. 4(a). Biodistribution of CPG2 activity following use of galactosylated SB43 (clearing antibody). Mice were given CPG2 conjugated to PEG 2000 mwt, average 22 mols PEG per molecule of CPG2, at time 0. Galactosylated monoclonal antibody SB43 was given 19, 20 and 21 hrs later by IP route. The mice were killed at 24 h post CPG2.
In relation to FIG. 4(a) and 4(b) these show good tumour to normal tissue concentration and ratios following use of the clearing antibody. However, it is not possible to administer the clearing antibody as efficiently in the mouse as in the human patient.
I have investigated PEG (mol wt 5000) in the range of 13-32 PEG molecules per enzyme molecule (CPG2, mol wt 83,000); the higher the molecular weight the higher and more prolonged is the plasma concentration of enzyme achieved. The higher the plasma concentration the higher tumour concentration in the tumour model LS174T. Since one objective is to get as much enzyme into the tumour as possible and prolong the period for which an effective concentration of enzyme is sustained in the tumour the conjugate giving the highest concentration of enzyme in blood is preferred. However, the choice of conjugate also has to take account of the need to clear enzyme from blood after the desired concentration of enzyme has been achieved in the tumour(s) and before prodrug is given. A conjugate which is difficult to clear from blood would be disadvantageous so that compromise between these two requirements may be necessary.
Thus, PEG with a molecular weight of 2000 in the range 20 to 40 PEG molecules per molecule of enzyme is preferred, giving a total molecular weight in the range of around 130-160 kDal, but associated water of hydration gives a molecular size equivalent to molecules of much greater weight.

LS174T tumours = assay: Tumour growth delay in the LS174T tumour model (MDEPT therapy); type: in vivo, nude mice; settings: with CPG2 clearance antibody SB43 and the phenol prodrug (25 mg/kg i.p., 3 doses)
Experimental: FIG. 6. Nude mice bearing LS174T tumours were given 25 enzyme units of CPG2-PEG (22 PEG molecules, PEG 5000) followed at 20 hr, 23 h, 26 h by galactosylated SB43. At 48 h post CPG2-PEG they received 25 mg/kg of a phenol prodrug (4-[N,N-bis(2-chloroethyl)amino]-phenoxycarbonyl-L-glutamic acid) intraperiotoneally, repeated to a total of 3 doses at 1 hr intervals.
FIG. 6. Nude mice bearing LS174T tumours were given 25 enzyme units of CPG2-PEG (22 PEG molecules, PEG 5000) followed at 20 hr, 23 h, 26 h by galactosylated SB43. At 48 h post CPG2-PEG they received 25 mg/kg of a phenol prodrug intraperiotoneally, repeated to a total of 3 doses at 1 hr intervals.

In the case of `CC(NC(=O)C(CCC(=O)O)NC(=O)c1ccc(N(C)Cc2cnc3nc(N)nc(N)c3n2)cc1)C(=O)O` (stereo not drawn) [Alanine methotrexate], the “toxicity relative to native methotrexate (fold less)” value (target cells in vitro) is given as 50-100 fold.

B1: Native ^125I-CPG2: bacterial enzyme carboxypeptidase G2, not conjugated to PEG (protein, UniProt P06621 23-415, looked up)
Carboxypeptidase G2: ALAQKRDNVLFQAATDEQPAVIKTLEKLVNIETGTGDAEGIAAAGNFLEAELKNLGFTVTRSKSAGLVVGDNIVGKIKGRGGKNLLLMSHMDTVYLKGILAKAPFRVEGDKAYGPGIADDKGGNAVILHTLKLLKEYGVRDYGTITVLFNTDEEKGSFGSRDLIQEEAKLADYVLSFEPTSAGDEKLSLGTSGIAYVQVNITGKASHAGAAPELGVNALVEASDLVLRTMNIDDKAKNLRFNWTIAKAGNVSNIIPASATLNADVRYARNEDFDAAMKTLEERAQQKKLPEADVKVIVTRGRPAFNAGEGGKKLVDKAVAYYKEAGGTLGVEERTGGGTDAAYAALSGKPVIESLGLPGFGYHSDKAEYVDISAIPRRLYMAARLIMDLGAGK
modifications: 125I label
notes: bacterial enzyme carboxypeptidase G2, not conjugated to PEG
For B1, the “clearance from blood, tumour and normal tissues” value [1] was “clears rapidly”.

B2: PEG 2000: CPG2 conjugated to PEG 2000 mwt (average 22-27 PEG molecules per CPG2) (conjugate, UniProt P06621 23-415, looked up)
Carboxypeptidase G2: B1 Carboxypeptidase G2
modifications: PEG 2000, 22-27 per molecule
For B2, the “plasma levels compared with PEG 5000” value [1] was “lower” and the “tumour concentrations of enzyme compared with PEG 5000” value [1] was “similar”.

B3: PEG (5000) 32-CPG2: CPG2 conjugated to PEG 5000 mwt, average 32 PEG molecules per molecule of CPG2 (conjugate, UniProt P06621 23-415, looked up)
Carboxypeptidase G2: B1 Carboxypeptidase G2
modifications: PEG 5000, 32 per molecule
notes: CPG2 conjugated to PEG 5000 mwt, average 32 PEG molecules per molecule of CPG2
For B3, the “plasma concentration of enzyme” value [1] was “high and persistent”.

B4: PEG 5000 at 22 PEGs per CPG2: CPG2 conjugated to PEG 5000, 22 PEG molecules per CPG2 (conjugate, UniProt P06621 23-415, looked up)
Carboxypeptidase G2: B1 Carboxypeptidase G2
modifications: PEG 5000, 22 per molecule
notes: CPG2 conjugated to PEG 5000, 22 PEG molecules per CPG2
In the case of B4, the “tumour growth delay compared to untreated controls” value (LS174T tumours) is reported as “significant growth delay”.

Reference: patent US20020127229A1, “Tumour therapy” (priority 1996, published 2002)
